From patent US9616120B2, “Monoclonal antibodies directed to CD20” (VET THERAPEUTICS, INC., priority 2010, dated 2017)

Legend:
canine B cells = settings: Veterinary Journal, 2006, vol 171, 556; cited from earlier work
[1] = target: T1, recombinant canine CD20 expressed in HEK cells (Canis lupus familiaris, UniProt Q3C2E2, A201T/C77Y/G273E/L198V); test: FACS binding to cells expressing recombinant canine CD20; settings: for mean fluorescence, Canine CD20: antibody 2.5 μg/mL
T1 construct: expressed in transfected cells; host or cells: HEK cells
T1 sequence (Q3C2E2 1-297 C77Y/L198V/A201T/G273E): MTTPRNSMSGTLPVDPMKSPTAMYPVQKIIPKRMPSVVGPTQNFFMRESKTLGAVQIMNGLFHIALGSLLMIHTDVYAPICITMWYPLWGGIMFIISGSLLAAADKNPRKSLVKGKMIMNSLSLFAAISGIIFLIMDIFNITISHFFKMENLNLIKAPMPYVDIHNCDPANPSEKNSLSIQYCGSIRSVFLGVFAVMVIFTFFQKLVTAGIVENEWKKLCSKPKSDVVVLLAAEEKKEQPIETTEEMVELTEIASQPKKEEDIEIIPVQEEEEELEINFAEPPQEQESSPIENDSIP
Description: (§1) The binding of the antibody variants of the present invention raised to canine CD20 can be assessed by FACS analysis for their binding to feline CD20 according to standard immunological techniques (see Veterinary Immunology and Immunopathology 2005, 106:179-196; Brousseau et al., Manual of Immunology Methods, CRC Press, 1998). In the present example, the antibody variants (2.5 μg/mL) are incubated with mammalian cells expressing the recombinant feline CD20 or canine CD20 or control cells. The amount of bound antibody is assessed by detection with a fluorescent-labeled reporter antibody reagent. Several controls are utilized to determine the background fluorescence: (i) CD20 expressing cells are incubated with the conjugated secondary antibody with an isotype antibody, and (ii) Control cells are incubated with the anti-CD20 antibodies.

[2] = target: T2, recombinant canine CD20 expressed in CHO cells (Canis lupus familiaris, UniProt Q3C2E2, A201T/C77Y/G273E/L198V); test: Binding affinity to recombinant canine CD20 expressed in CHO cells by FACS; settings: CHO cells expressing canine CD20
T2 construct: are transfected with an expression vector encoding the full-length canine CD20 protein; expressed in transfected cells; host or cells: CHO cells (CHO-DG44)
T2 sequence (Q3C2E2 1-297 C77Y/L198V/A201T/G273E): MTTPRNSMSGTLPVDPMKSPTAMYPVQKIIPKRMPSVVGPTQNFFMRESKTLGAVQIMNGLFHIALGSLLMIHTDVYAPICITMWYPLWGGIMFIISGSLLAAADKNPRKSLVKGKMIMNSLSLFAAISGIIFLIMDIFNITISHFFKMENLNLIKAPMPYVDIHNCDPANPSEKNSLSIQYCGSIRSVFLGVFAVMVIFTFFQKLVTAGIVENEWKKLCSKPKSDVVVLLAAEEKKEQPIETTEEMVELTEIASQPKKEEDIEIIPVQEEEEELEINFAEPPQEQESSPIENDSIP
Description: The antibody variants of the present invention are compared for their binding affinity to canine CD20. Binding affinity is assessed by measuring binding to the recombinant canine CD20 expressed in CHO cells by FACS analysis as described above.

[3] = system: feline CD20 expressed in mammalian cells; test: FACS binding to cells expressing recombinant feline CD20; settings: for mean fluorescence, Feline CD20: antibody 2.5 μg/mL; for binding to feline CD20 (in words): mammalian cells
Sequence of feline CD20 expressed in mammalian cells (as listed by the source): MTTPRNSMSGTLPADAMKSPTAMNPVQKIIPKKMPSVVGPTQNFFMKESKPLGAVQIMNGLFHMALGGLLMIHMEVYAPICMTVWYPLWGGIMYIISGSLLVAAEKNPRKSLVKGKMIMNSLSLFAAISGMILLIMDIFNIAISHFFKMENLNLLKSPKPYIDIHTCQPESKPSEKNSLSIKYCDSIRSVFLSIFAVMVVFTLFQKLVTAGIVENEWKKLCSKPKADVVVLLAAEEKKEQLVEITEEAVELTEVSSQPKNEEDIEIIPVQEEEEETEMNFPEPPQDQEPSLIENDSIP
Description: as §1

Control Cells = test: FACS binding to control cells; settings: antibody 2.5 μg/mL
Description: In the present example, the antibody variants (2.5 μg/mL) are incubated with mammalian cells expressing the recombinant feline CD20 or canine CD20 or control cells. The amount of bound antibody is assessed by detection with a fluorescent-labeled reporter antibody reagent. Several controls are utilized to determine the background fluorescence: (i) CD20 expressing cells are incubated with the conjugated secondary antibody with an isotype antibody, and (ii) Control cells are incubated with the anti-CD20 antibodies.

recombinant canine CD20 = target: T3, recombinant canine CD20 (Canis lupus familiaris, UniProt Q3C2E2, A201T/C77Y/G273E/L198V); test: Competition experiments (epitope mapping) on CHO cells expressing recombinant canine CD20; format: binding; settings: unlabelled competitor 25 μg/mL; for percentage of inhibition (PI), labeled antibody CD20-1: biotin-labeled CD20-1 2 μg/mL; for percentage of inhibition (PI), labeled antibody CD20-2: biotin-labeled CD20-2 2 μg/mL; for percentage of inhibition (PI), labeled antibody CD20-5: biotin-labeled CD20-5 2 μg/mL
T3 construct: are transfected with an expression vector encoding the full-length canine CD20 protein; expressed in transfected cells; host or cells: CHO cells (CHO-DG44)
T3 sequence (Q3C2E2 1-297 C77Y/L198V/A201T/G273E): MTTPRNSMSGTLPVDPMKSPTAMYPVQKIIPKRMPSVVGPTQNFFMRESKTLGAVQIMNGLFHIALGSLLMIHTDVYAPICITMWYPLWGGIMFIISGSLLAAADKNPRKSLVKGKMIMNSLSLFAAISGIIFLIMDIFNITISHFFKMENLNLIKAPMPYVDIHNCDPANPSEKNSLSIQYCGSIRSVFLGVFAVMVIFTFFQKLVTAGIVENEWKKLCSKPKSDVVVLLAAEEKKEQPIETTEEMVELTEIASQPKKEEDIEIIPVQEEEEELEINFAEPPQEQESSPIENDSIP
Description: Competition experiments are performed using standard techniques. Briefly, biotinylated recombinant anti-canine CD20 antibodies are titrated on CHO cells expressing recombinant canine CD20. Cells are first incubated with an excess of unlabelled recombinant anti-canine CD20 antibody (25 μg/mL). Thereafter, cells are incubated with a biotin-labeled antibody at 2 μg/mL. After washing, cells are incubated with streptavidin- phycoerythrin and fluorescence is analyzed by flow cytometry. An irrelevant antibody is used as negative control for inhibition. Results are expressed as a ratio between fluorescence intensity of the cells pre-incubated with the unlabelled antibody and the fluorescence intensity obtained for each biotinylated antibody alone. The percentage of inhibition (PI) is calculated by the following formula: PI=[1−(Experimental-Background)/Biotinylated antibody alone−Background)]×100%.

[4] = Half-life of recombinant anti-canine CD20 antibody in beagle dogs (plasma ELISA); format: in vivo
Description: The half-life of the recombinant anti-canine CD20 antibody are assessed. In this example, the half-life of antibody CD20-2 (VET305) is assessed by dosing beagle dogs intravenously. Blood is collected for analysis of CD20-2 in plasma samples harvested as whole blood treated with Ethylenediaminetetraacetic acid (EDTA) as the anticoagulant. An enzyme linked immunosorbant assay (ELISA) method is utilized to determine the plasma antibody concentrations. In this assay, a 96-well plate is coated with a rabbit polyclonal antibody raised to the variable domain of the antibody CD20-2. The antibody CD20-2 in standards or in samples is captured by the polyclonal antibody and is detected by an enzyme conjugated anti-dog secondary antibody. A non-linear regression fit of the standards is used to determine the recombinant antibody concentrations in plasma.

[5] = Tolerability of weekly dosing; format: in vivo; settings: weekly dose over 4 weeks
[6] = system: B lymphocyte cell population; test: Depletion of B cells in vivo (CD21 flow cytometry); parameters: species or system beagle dogs; settings: three consecutive doses 2.4 mg/kg to 5.0 mg/kg
Description: Three beagle dogs receive three consecutive dosages of the antibody CD20-2 (VET305) ranging from […] to 5.0 mg/kg every 5 days. Blood samples drawn at several time points are centrifuged at 2000 RPM for 5 min. Plasma is removed for assay of the antibody levels. The pellet containing peripheral blood leukocytes and red blood cells is resuspended in a plasma equivalent volume of phosphate saline solution (Dulbecco's Phosphate-Buffered Saline, Mediatech, Cat No. 21-030-CM) for quantitation of lymphocyte populations by flow cytometry. A 0.1 mL volume of the cell preparation is distributed into micro-centrifuge tubes. Labeled monoclonal antibody with specificity for the canine lymphocyte surface marker CD21 is added to the vial to identify the B lymphocyte cell population. An additional sample is included with no reagents for determination of autofluorescence. Cells are incubated with the fluorescent antibody for 30 min. Red blood cell were then lyzed for 15 min using a lysis buffer (Red Blood Cell Lysis Buffer, Biolegend,Cat No. 420301) and then washed prior to analysis on a Becton Dickinson FACS instrument.

[7] = multiple doses 2.0 to 5.0 mg/kg

Rituximab: a monoclonal antibody to the human CD20 antigen
reactivity with canine B cells (canine B cells): does not react with canine B cells

B1: CD20-5: anti-canine CD20 antibody; full length HC SEQ ID NO. 40, LC SEQ ID NO. 41 (antibody)
heavy: QVQLKQSGAELVKPGASVKISCKASGYTFTDYYINWVKQRPGQGLEWIGKIGPRSGSIYYNEKFKGKATLTADKSSSTAYMQLRSLTSEDSAVYFCAVLKWGQGTLVTVSSASTTAPSVFPLAPSCGSQSGSTVALACLVSGYFPEPVTVSWNSGSLTSGVHTFPSVLQSSGLYSLSSMVTVPSSRWPSETFTCNVAHPASKTKVDKPVPKRENGRVPRPPDCPKCPAPEMLGGPSVFIFPPKPKDTLLIARTPEVTCVVVDLDPEDPEVQISWFVDGKQMQTAKTQPREEQFNGTYRVVSVLPIGHQDWLKGKQFTCKVNNKALPSPIERTISKARGQAHQPSVYVLPPSREELSKNTVSLTCLIKDFFPPDIDVEWQSNGQQEPESKYRTTPPQLDEDGSYFLYSKLSVDKSRWQRGDTFICAVMHEALHNHYTQKSLSHSPGK
light: DAVMTQIPLTLSVTIGQPASISCKSSQSLLHSDGKTYLNWLLQRPGQSPKRLIYLVSKLDSGVPDRFTGSGSGTDFTLKISRVEAEDLGVYYCWQGTHFPQTFGGGTHLTVLGQPKASPSVTLFPPSSEELGANKATLVCLISDFYPSGVTVAWKADGSPITQGVETTKPSKQSNNKYAASSYLSLTPDKWKSHSSFSCLVTHEGSTVEKKVAPAECS
modifications: canis familiaris/mus musculus
notes: anti-canine CD20 antibody; 41
binding to recombinant canine CD20 (in words) [1]: effective binding
mean fluorescence, Canine CD20 [1]: 2769 mean fluorescence units
Kd [2]: 1.2 nM
mean fluorescence, Feline CD20 [3]: 2048 mean fluorescence units
binding to feline CD20 (in words) [3]: bind feline CD20
mean fluorescence, Control Cells (Control Cells): 215 mean fluorescence units
percentage of inhibition (PI), labeled antibody CD20-1 (recombinant canine CD20): 107.07%
percentage of inhibition (PI), labeled antibody CD20-2 (recombinant canine CD20): 6.47%
percentage of inhibition (PI), labeled antibody CD20-5 (recombinant canine CD20): 85.88%

B2: CD20-2: anti-canine CD20 antibody; full length HC SEQ ID NO. 38, LC SEQ ID NO. 39 (antibody)
heavy: QVQLQQSRAELVRPGASVTLSCKPSGYTFTDYEVHWVKQTPVHGLEWIGAIDPETGGTADNQKFKGKAILTADKSSSTAYMELRSLTSEDSAVYYCTNFVDVWGTGTTVTVSSASTTAPSVFPLAPSCGSQSGSTVALACLVSGYFPEPVTVSWNSGSLTSGVHTFPSVLQSSGLYSLSSMVTVPSSRWPSETFTCNVAHPASKTKVDKPVPKRENGRVPRPPDCPKCPAPEMLGGPSVFIFPPKPKDTLLIARTPEVTCVVVDLDPEDPEVQISWFVDGKQMQTAKTQPREEQFNGTYRVVSVLPIGHQDWLKGKQFTCKVNNKALPSPIERTISKARGQAHQPSVYVLPPSREELSKNTVSLTCLIKDFFPPDIDVEWQSNGQQEPESKYRTTPPQLDEDGSYFLYSKLSVDKSRWQRGDTFICAVMHEALHNHYTQKSLSHSPGK
light: DVVMSQSPSSLAVSVGEKVTMSCKSSQSLLYSGNQKNYLAWYQQKPGQSPRLLIYWASTRESGVPDRFTGSGSGTDFTLTISSVKAEDLAVFYCQQYYNYPLTFGGGTHLTVLGQPKASPSVTLFPPSSEELGANKATLVCLISDFYPSGVTVAWKADGSPITQGVETTKPSKQSNNKYAASSYLSLTPDKWKSHSSFSCLVTHEGSTVEKKVAPAECS
modifications: canis familiaris/mus musculus
notes: anti-canine CD20 antibody; 39
binding to recombinant canine CD20 (in words) [1]: effective binding
mean fluorescence, Canine CD20 [1]: 2340 mean fluorescence units
change of half-life values ([4]; consecutive administration): increase after consecutive administration
elimination half life [4, 7]: one week
plasma antibody concentrations (in words) [4, 7]: increases overtime and persists at significant levels
volume of distribution [4, 7]: approximating plasma volume
plasma antibody concentrations (in words) ([4]; single dose 2.4 mg/kg): high plasma antibody concentrations are achieved in all animals
mean fluorescence, Feline CD20 [3]: 2209 mean fluorescence units
binding to feline CD20 (in words) [3]: bind feline CD20
mean fluorescence, Control Cells (Control Cells): 49 mean fluorescence units
adverse effects on clinical and behavioral observations or body weights [5]: no adverse effects
tolerability [5]: well tolerated locally and systemically
duration of depletion after the last dose [6]: at least 10 days
B lymphocyte cell percentage after treatment ([6]; every 5 days): decrease in-B lymphocyte cell percentage
percentage of inhibition (PI), labeled antibody CD20-1 (recombinant canine CD20): 0.90%
percentage of inhibition (PI), labeled antibody CD20-2 (recombinant canine CD20): 124.33%
percentage of inhibition (PI), labeled antibody CD20-5 (recombinant canine CD20): 3.69%
